The sequences below were run against Jak2 (UniProt O60674) (assay: phosphorylation enrichment, bacterial display (enrichment ratio); higher = better substrate or ligand; peptides without Tyr show the background).
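Note: 11-residue human phosphosite peptides and single-mutation variants displayed on the E. coli surface, counted by deep sequencing, each peptide's frequency after selection divided by its frequency in the unselected input library; frequency after pTyr selection over input frequency; kinase dosed for 20-30% of maximal phosphorylation in three min.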

Sequence of Jak2 (O60674 whole entry, looked up): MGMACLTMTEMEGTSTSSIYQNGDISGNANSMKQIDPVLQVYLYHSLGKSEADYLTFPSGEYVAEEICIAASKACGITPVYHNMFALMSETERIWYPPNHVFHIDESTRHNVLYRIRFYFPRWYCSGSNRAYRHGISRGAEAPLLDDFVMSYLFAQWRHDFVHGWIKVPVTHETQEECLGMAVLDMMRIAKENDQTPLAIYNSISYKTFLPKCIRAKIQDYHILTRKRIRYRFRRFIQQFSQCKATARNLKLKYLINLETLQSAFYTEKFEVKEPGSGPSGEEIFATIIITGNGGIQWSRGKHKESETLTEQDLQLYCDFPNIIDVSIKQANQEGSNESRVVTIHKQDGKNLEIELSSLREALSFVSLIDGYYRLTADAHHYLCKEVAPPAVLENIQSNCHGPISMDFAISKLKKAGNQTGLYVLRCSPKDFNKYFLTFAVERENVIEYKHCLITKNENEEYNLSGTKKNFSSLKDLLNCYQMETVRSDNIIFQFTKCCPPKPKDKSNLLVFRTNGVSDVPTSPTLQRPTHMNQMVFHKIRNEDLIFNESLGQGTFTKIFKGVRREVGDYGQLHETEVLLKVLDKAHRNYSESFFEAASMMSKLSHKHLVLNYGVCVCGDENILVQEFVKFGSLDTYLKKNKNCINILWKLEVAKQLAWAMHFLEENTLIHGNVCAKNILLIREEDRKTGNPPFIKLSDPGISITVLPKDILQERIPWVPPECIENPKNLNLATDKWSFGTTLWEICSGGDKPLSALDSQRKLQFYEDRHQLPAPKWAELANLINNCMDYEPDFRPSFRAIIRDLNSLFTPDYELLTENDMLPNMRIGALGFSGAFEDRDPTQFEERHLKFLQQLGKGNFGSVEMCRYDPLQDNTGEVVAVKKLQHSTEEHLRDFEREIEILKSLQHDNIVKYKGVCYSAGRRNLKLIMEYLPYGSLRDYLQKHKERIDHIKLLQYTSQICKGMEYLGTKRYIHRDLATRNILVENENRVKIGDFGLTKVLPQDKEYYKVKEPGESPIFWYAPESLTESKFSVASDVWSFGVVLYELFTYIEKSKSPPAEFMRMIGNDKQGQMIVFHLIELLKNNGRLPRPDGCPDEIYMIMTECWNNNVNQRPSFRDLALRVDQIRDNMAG

Sequence | phosphorylation enrichment
YLEKYYKFGSR [NNMT_Y25] | 0.604
TTEHIYGDKFF [UBA7_Y524_N527K] | 0.648
MDFRSYPHEFG [RBM10_Y44_R46H_YF] | 0.536
DVLPEYKLQAP [KCNH2_Y388] | 0.659
AFSLKYDQQTQ [SYTL4_Y366_E367D] | 1.03
IQVDAYFSPIH [ADSL_Y432] | 2.15
SVSVNYGDLVQ [GRAP_Y101_Q104L] | 0.728
NALVQYQEMEK [BBS4_Y395_A393V] | 1.02
SRGRQYQELPR [KCNH2_Y1009] | 0.455
TLNHQYDFTFH [CSNK1A1_Y292_D297H_YF] | 0.738
MHDKEYFSVHN [MET_Y1234_Y1230H_YF] | 0.921
VIIVLYFSLWK [SLC6A2_Y249_V245I] | 0.702
DALDNYVIRGV [PCCA_Y473] | 0.846
NLSVRYDSSLK [ABCC8_Y1353] | 0.847
SNYRAYATEPQ [TNNI3_Y29_H34Q] | 0.597
QGIPWYHSQSP [FOXF1_Y331_R330W] | 0.977
KTVQDYLKKFY [MMP8_Y36_E38K] | 0.517

Sequence | phosphorylation enrichment
AQRKLYRNVML [ZNF569_Y33] | 0.629
VEDQFYRVDCF [FHL1_Y208_C209R_YF] | 1.24
SLGKGYYDGGC [MC4R_Y35_S36Y] | 1.03
DVFRQYASLRG [GANAB_Y379_T383R] | 0.504
EAGKVYLKAPM [CBFB_Y96] | 0.669
GVKLTYGDAQN [SLC28A1_Y404] | 1.63
FAREGYSALPQ [SARS2_Y52_YF] | 0.652
QAINEYEKWLE [MAP9_Y603] | 1.73
NFATLHLKIYH [PDE6B_Y219_Y219H] | 1.12
PADCRYYTFPQ [GAMT_Y222_A224T] | 4.4
TGEDWYVLVRV [SF3B3_Y904_G908R] | 1.21
FCIDHYLGKEM [G6PD_Y202_R198C_YF] | 0.63
FRASFYRRGDR [LTK_Y677_YF] | 0.583
DPYHVYIKNHV [KCNE3_Y95_R99H] | 0.798
KGIQLYDTPFE [SHB_Y297_YF] | 0.843
ERFAFYRDSPR [FOXE3_Y108] | 0.835

What follows are sequences tested on AncSZ in the same assay as above.

Sequence | phosphorylation enrichment
YLEKYYKFGSR [NNMT_Y25] | 0.69
TTEHIYGDKFF [UBA7_Y524_N527K] | 0.722
MDFRSYPHEFG [RBM10_Y44_R46H_YF] | 0.64
DVLPEYKLQAP [KCNH2_Y388] | 0.911
AFSLKYDQQTQ [SYTL4_Y366_E367D] | 1.03
IQVDAYFSPIH [ADSL_Y432] | 1.17
SVSVNYGDLVQ [GRAP_Y101_Q104L] | 0.745
NALVQYQEMEK [BBS4_Y395_A393V] | 0.978
SRGRQYQELPR [KCNH2_Y1009] | 0.512
TLNHQYDFTFH [CSNK1A1_Y292_D297H_YF] | 1.02
MHDKEYFSVHN [MET_Y1234_Y1230H_YF] | 0.954
VIIVLYFSLWK [SLC6A2_Y249_V245I] | 0.774
DALDNYVIRGV [PCCA_Y473] | 0.849
NLSVRYDSSLK [ABCC8_Y1353] | 0.68
SNYRAYATEPQ [TNNI3_Y29_H34Q] | 0.699
QGIPWYHSQSP [FOXF1_Y331_R330W] | 0.645
KTVQDYLKKFY [MMP8_Y36_E38K] | 0.571

Sequence | phosphorylation enrichment
AQRKLYRNVML [ZNF569_Y33] | 0.566
VEDQFYRVDCF [FHL1_Y208_C209R_YF] | 1.16
SLGKGYYDGGC [MC4R_Y35_S36Y] | 0.96
DVFRQYASLRG [GANAB_Y379_T383R] | 0.482
EAGKVYLKAPM [CBFB_Y96] | 0.754
GVKLTYGDAQN [SLC28A1_Y404] | 0.726
FAREGYSALPQ [SARS2_Y52_YF] | 0.603
QAINEYEKWLE [MAP9_Y603] | 2.34
NFATLHLKIYH [PDE6B_Y219_Y219H] | 1.16
PADCRYYTFPQ [GAMT_Y222_A224T] | 4.04
TGEDWYVLVRV [SF3B3_Y904_G908R] | 1.37
FCIDHYLGKEM [G6PD_Y202_R198C_YF] | 0.725
FRASFYRRGDR [LTK_Y677_YF] | 0.756
DPYHVYIKNHV [KCNE3_Y95_R99H] | 0.845
KGIQLYDTPFE [SHB_Y297_YF] | 1.13
ERFAFYRDSPR [FOXE3_Y108] | 0.889

These sequences were tested against MERTK (UniProt Q12866) in the same assay as above.
Sequence of MERTK (Q12866 whole entry, looked up): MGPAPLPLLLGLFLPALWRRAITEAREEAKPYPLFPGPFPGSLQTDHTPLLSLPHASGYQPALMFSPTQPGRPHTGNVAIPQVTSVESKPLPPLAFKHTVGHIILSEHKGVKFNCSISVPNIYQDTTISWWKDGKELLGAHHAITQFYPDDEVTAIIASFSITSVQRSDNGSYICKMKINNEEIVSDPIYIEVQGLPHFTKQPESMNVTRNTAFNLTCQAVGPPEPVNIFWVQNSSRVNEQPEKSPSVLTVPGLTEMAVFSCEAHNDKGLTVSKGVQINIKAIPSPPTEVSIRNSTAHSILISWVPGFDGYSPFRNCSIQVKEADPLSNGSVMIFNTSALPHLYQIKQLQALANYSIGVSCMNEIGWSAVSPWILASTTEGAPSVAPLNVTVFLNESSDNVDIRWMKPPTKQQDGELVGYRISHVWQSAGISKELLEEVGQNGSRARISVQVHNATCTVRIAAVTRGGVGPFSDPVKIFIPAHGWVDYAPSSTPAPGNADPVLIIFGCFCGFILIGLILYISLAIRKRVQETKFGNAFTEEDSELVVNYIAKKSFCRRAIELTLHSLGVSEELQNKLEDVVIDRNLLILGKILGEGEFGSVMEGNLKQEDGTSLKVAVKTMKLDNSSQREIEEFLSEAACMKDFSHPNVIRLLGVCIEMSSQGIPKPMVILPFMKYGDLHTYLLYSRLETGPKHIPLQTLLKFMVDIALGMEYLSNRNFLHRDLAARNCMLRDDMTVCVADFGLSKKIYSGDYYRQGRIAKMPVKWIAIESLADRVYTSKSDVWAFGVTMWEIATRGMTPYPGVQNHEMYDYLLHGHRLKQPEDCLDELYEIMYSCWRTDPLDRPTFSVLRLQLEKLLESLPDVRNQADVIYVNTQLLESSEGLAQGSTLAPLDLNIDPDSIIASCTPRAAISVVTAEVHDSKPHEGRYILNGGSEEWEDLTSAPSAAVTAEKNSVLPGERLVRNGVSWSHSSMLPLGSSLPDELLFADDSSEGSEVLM

Sequence | phosphorylation enrichment
YLEKYYKFGSR [NNMT_Y25] | 0.407
TTEHIYGDKFF [UBA7_Y524_N527K] | 0.459
MDFRSYPHEFG [RBM10_Y44_R46H_YF] | 0.366
DVLPEYKLQAP [KCNH2_Y388] | 0.432
AFSLKYDQQTQ [SYTL4_Y366_E367D] | 0.406
IQVDAYFSPIH [ADSL_Y432] | 0.551
SVSVNYGDLVQ [GRAP_Y101_Q104L] | 0.42
NALVQYQEMEK [BBS4_Y395_A393V] | 0.459
SRGRQYQELPR [KCNH2_Y1009] | 0.36
TLNHQYDFTFH [CSNK1A1_Y292_D297H_YF] | 0.557
MHDKEYFSVHN [MET_Y1234_Y1230H_YF] | 0.449
VIIVLYFSLWK [SLC6A2_Y249_V245I] | 0.354
DALDNYVIRGV [PCCA_Y473] | 0.408
NLSVRYDSSLK [ABCC8_Y1353] | 0.381
SNYRAYATEPQ [TNNI3_Y29_H34Q] | 0.428
QGIPWYHSQSP [FOXF1_Y331_R330W] | 0.517
KTVQDYLKKFY [MMP8_Y36_E38K] | 0.454

Sequence | phosphorylation enrichment
AQRKLYRNVML [ZNF569_Y33] | 0.47
VEDQFYRVDCF [FHL1_Y208_C209R_YF] | 0.557
SLGKGYYDGGC [MC4R_Y35_S36Y] | 0.514
DVFRQYASLRG [GANAB_Y379_T383R] | 0.384
EAGKVYLKAPM [CBFB_Y96] | 0.602
GVKLTYGDAQN [SLC28A1_Y404] | 0.397
FAREGYSALPQ [SARS2_Y52_YF] | 0.502
QAINEYEKWLE [MAP9_Y603] | 0.663
NFATLHLKIYH [PDE6B_Y219_Y219H] | 0.46
PADCRYYTFPQ [GAMT_Y222_A224T] | 11
TGEDWYVLVRV [SF3B3_Y904_G908R] | 0.364
FCIDHYLGKEM [G6PD_Y202_R198C_YF] | 0.375
FRASFYRRGDR [LTK_Y677_YF] | 0.722
DPYHVYIKNHV [KCNE3_Y95_R99H] | 0.399
KGIQLYDTPFE [SHB_Y297_YF] | 4.56
ERFAFYRDSPR [FOXE3_Y108] | 0.489

Each sequence was assayed on Fer (mouse) in the same assay as above.

Sequence | phosphorylation enrichment
YLEKYYKFGSR [NNMT_Y25] | 0.508
TTEHIYGDKFF [UBA7_Y524_N527K] | 0.502
MDFRSYPHEFG [RBM10_Y44_R46H_YF] | 0.354
DVLPEYKLQAP [KCNH2_Y388] | 0.427
AFSLKYDQQTQ [SYTL4_Y366_E367D] | 0.485
IQVDAYFSPIH [ADSL_Y432] | 0.652
SVSVNYGDLVQ [GRAP_Y101_Q104L] | 0.54
NALVQYQEMEK [BBS4_Y395_A393V] | 0.509
SRGRQYQELPR [KCNH2_Y1009] | 0.349
TLNHQYDFTFH [CSNK1A1_Y292_D297H_YF] | 0.685
MHDKEYFSVHN [MET_Y1234_Y1230H_YF] | 0.497
VIIVLYFSLWK [SLC6A2_Y249_V245I] | 0.471
DALDNYVIRGV [PCCA_Y473] | 0.481
NLSVRYDSSLK [ABCC8_Y1353] | 0.422
SNYRAYATEPQ [TNNI3_Y29_H34Q] | 0.444
QGIPWYHSQSP [FOXF1_Y331_R330W] | 0.533
KTVQDYLKKFY [MMP8_Y36_E38K] | 0.325

Sequence | phosphorylation enrichment
AQRKLYRNVML [ZNF569_Y33] | 0.373
VEDQFYRVDCF [FHL1_Y208_C209R_YF] | 0.559
SLGKGYYDGGC [MC4R_Y35_S36Y] | 0.648
DVFRQYASLRG [GANAB_Y379_T383R] | 0.295
EAGKVYLKAPM [CBFB_Y96] | 0.411
GVKLTYGDAQN [SLC28A1_Y404] | 0.397
FAREGYSALPQ [SARS2_Y52_YF] | 0.441
QAINEYEKWLE [MAP9_Y603] | 0.961
NFATLHLKIYH [PDE6B_Y219_Y219H] | 0.498
PADCRYYTFPQ [GAMT_Y222_A224T] | 4.15
TGEDWYVLVRV [SF3B3_Y904_G908R] | 0.524
FCIDHYLGKEM [G6PD_Y202_R198C_YF] | 0.633
FRASFYRRGDR [LTK_Y677_YF] | 0.456
DPYHVYIKNHV [KCNE3_Y95_R99H] | 0.45
KGIQLYDTPFE [SHB_Y297_YF] | 2.8
ERFAFYRDSPR [FOXE3_Y108] | 0.404
